# Source: the nanobody polyreactivity screen of Harvey et al. (2022)
# Experiment: yeast display, Sf9 membrane polyspecificity reagent, FACS + sequencing; frameworks hold sequencing errors
# Procedure, shortened: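 Nanobodies came from a synthetic yeast display library in Saccharomyces cerevisiae BJ5465, induced with galactose for 36–48 hours and stained for 1 hour at 4 °C with 10% biotinylated, detergent-solubilized Sf9 membrane reagent. Cells were enriched on streptavidin microbeads and then FACS-sorted, with low and high (top ~1%) gates set on anti-HA fluorescence for expression and streptavidin fluorescence for reagent binding. Each polyreactivity label reflects the gate a clone came from. Genes were amplified by colony PCR, sequenced by MiSeq 2 × 250 and filtered by CDR length.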
row,Sequence,polyreactivity (PSR sort gate)
1,QVQLVESGGGLVQAGGSLRLSCAASGSTFRGYAMGWYRQAPGKERELVAAITFRGGSTYYADSVKGRFTISRDNAKNTVFLQMNSLKPEDTEVYYCYVRIYGYDYWGQGTQVSVSS,high polyreactivity
2,QVQLVESGGGLVQAGGSLRLSCAASGSTFRGYAMGWYRQAPGKERELVATITSGGSTKYADSVKGRFTISRDNAKNTVYLQMNSLKPEDTAVYYCNAVPRSWSPYSHWFDYWGQGTQVTVSS,low polyreactivity
3,QVQLVESGGGLVQAGGSLRLSCAASGSTFRGYAMGWYRQAPGKERELVATITSGGSTNYADSVKGRFTISRDNAKNTVYLQMNSLKPEDTAVYYCNARWVPRYWKYFPANYGYWGLGTQVTVSS,high polyreactivity
4,QVQLVESGGGLVQAGGSLRLSCAASGSTFRGYAMGWYRQEPGKERELVAAITSGGSTNYADSVKGRFTISRDNAKNTVYLQMISLKPEDTAVYYCNADYTYLYDPNDYWGQGTQVTVSS,low polyreactivity
5,QVQLVESGGGLVQAGGSLRLSCAASGSTFRGYTMGRNRQAPGKERELVAAISFRGTSTYYADSVKGRFTISRDNAKITVYLQMNSLIPEDTAVDYCAAVYTWGPGYGHDYWGQGTQVTVSS,low polyreactivity
6,QVQLVESGGGLVQAGGSLRLSCAASGSTFRHNAMGWYRQAPGKERELVAAITRSGGRTFYADSVKGRFTISRDNAKNTVYLQMNSLKPEDTAVYYCWGLGTQVTVSS,low polyreactivity
7,QVQLVESGGGLVQAGGSLRLSCAASGSTFRHYAMGWYRQAPGKERELVAAISIRGGSTNYADSVKGRFTISRDNAKNTVYLQMNSLKPEDTAVYYCNACRLRYIFKSYDYWGQGTQVTVSS,high polyreactivity
8,QVQLVESGGGLVQAGGSLRLSCAASGSTFRHYAMGWYRQAPGKERELVAVISWGGTSTYYADSVKGRFTISRDNAKNTVYLQMKSLKPEDTAVYYCNKAYFPIFKGYEMYYWGQGTQVTVSS,low polyreactivity
9,QVQLVESGGGLVQAGGSLRLSCAASGSTFRINTMGWYRQAPGKERELVATITGSGGSTYYADSVKGRFTISRDNAKNTVYLQMNSLKPEDTAVYYCAAVGDQNEYDYWGQGTQVTVSS,low polyreactivity
10,QVQLVESGGGLVQAGGSLRLSCAASGSTFRIYAMGWYRQAPGKERELVAAISKRGGSTYYADSVKGRFTISRDNAKNTVYLQMNSLKPEDTAVYYCAKPPYSQYEFDYWGQGTQVTVSS,high polyreactivity
11,QVQLVESGGGLVQAGGSLRLSCAASGSTFRIYVMGWYRQAPGKEREFVAAISRGGGSTYYADSVKGRFTISRDNAKNTVYLQMNSLKPEDTAVYYCAAVTRDYGSRSGLDYWGQGTQVTVSS,high polyreactivity
12,QVQLVESGGGLVQAGGSLRLSCAASGSTFRLNAMGWYRQAPGKERELVAAITSGGSTTYADSVKGRFTISRDNAKNTVYLQMNSLKPEDTAVYYCAAANWGTPPYDYWGQGTQVTVSS,low polyreactivity
13,QVQLVESGGGLVQAGGSLRLSCAASGSTFRLYAMGWYRQAPGKERELVAAISTRGSSTYYADSVKGRFTISRDNAKNTVYLQMNSLKPEDTAVYYCAADAYFIYSRYWYDYWGQGTQVTVSS,high polyreactivity
14,QVQLVESGGGLVQAGGSLRLSCAASGSTFRNNAMGWYRQAHGKERELVAAISRGGGSTYYADSVKGRFTISRDNAKNTVYLQMNSLKPEDTAVYYCARRPTGIYDYWGQGTQVTVSS,high polyreactivity
15,QVQLVESGGGLVQAGGSLRLSCAASGSTFRNYAMGWYRQAPGKERELVATISASGGSTYYADSVKGRFTISRDNAKNTVYLQMNSLKPEDTAVYYCNAVVKLWGLVIPPGDYDYWGQGTQVTVSS,high polyreactivity
16,QVQLVESGGGLVQAGGSLRLSCAASGSTFRQNAMGWYRQAPGKERELVAAITYRVASTYYADSVKGRFTISRDNAKNTVYLQMNSLKPEDSAVYYCAAYKRRSNGRYWTYDYWGQGSQVTVSS,high polyreactivity
17,QVQLVESGGGLVQAGGSLRLSCAASGSTFRQYAMGWSRQAPGKERELVAAISSSGGSTYYADSVKGRFTISRDNAKNTVYLQMNSLKPEDTAGYYCNARLYGSASWGQPKEYDYWGQGTQVTVSS,low polyreactivity
18,QVQLVESGGGLVQAGGSLRLSCAASGSTFRQYAMGWYRQAPGKERELVAGISYRGGRTYYADSVKGRFTISRDNAKNTVYLQMNSLKPEDTAVYYCNALRHYRDISVDGDDYWGQGTQVTVSS,high polyreactivity
19,QVQLVESGGGLVQAGGSLRLSCAASGSTFRRNAMGWYRQAPGKERELVAAISGSGGSTYYADSVKGRFTISRDNAKNTVYLQMNSLKPEDTAVYYCAARVVKNYKSDSWGQGTQVTVSS,high polyreactivity
20,QVQLVESGGGLVQAGGSLRLSCAASGSTFRRNAMGWYRQAPGKERELVAAITSTDSTYYADSVKGRFTISRDNAKNTVYLQMNSLKPEDTAVYYCAKGYWWGGEMGYWGQGSQVTVSS,low polyreactivity
21,QVQLVESGGGLVQAGGSLRLSCAASGSTFRRYAMGWYRQAPGKERELVAAITTADITNYADSVKGRFTISRDNAKNTVYLQMNSLKPEDTAVYYCAAPVAYRGSRNFIYRYNYWGQGTQVTVSS,high polyreactivity

row,Sequence,polyreactivity (PSR sort gate)
1,QVQLVESGGGLVQAGGSLRLSCAASGSTFRRYTMGWYRQAPGKERELLAAISSGGSTYYADSVKGRFTISRDNAKNTVYLQMNSLNPEDTAVYYCAAKNYPLTRYWRYDYSEYYYWGQATQVTVSS,high polyreactivity
2,QVQLVESGGGLVQAGGSLRLSCAASGSTFRRYVMGGYREAAGKERELVAAISGSSGSTYYADSVKGRFTISRDNAKNTVYLQMNSLKPEDTAVYYCAAVRATQGYRYGYWGQGTQVTVSS,high polyreactivity
3,QVQLVESGGGLVQAGGSLRLSCAASGSTFRSYAMGWYRQAPGKERELVAAISSSGSRTYYADSVKGRFTISRDNAKNTVYLQMNSLKPEDTAVYYCAADYYYNTKLDYWGQGTQVTVSS,high polyreactivity
4,QVQLVESGGGLVQAGGSLRLSCAASGSTFRSYAMGWYRQAPGKERELVAAISYSGDSTYYADSVKGRFTISRDNAKNTVYLQMNSLKPEDTAVYYCAALRDWDIQGEPWKRYGYWGQGTQVTVSS,low polyreactivity
5,QVQLVESGGGLVQAGGSLRLSCAASGSTFRSYAMGWYRQAPGKERELVAVISSGDSTYYADSVKGRFTISRDNAKNTVYLQMNSLKPEDTAVYYSAADSYVLGRWYGYWGQGTQVTVSS,low polyreactivity
6,QVQLVESGGGLVQAGGSLRLSCAASGSTFRSYARGWYRQAPGKERELVAVISKRGGSTYYADSVKGRFTISRDNAKNTVYLQMNSLKPEDTAVYYCAADVYRYYAPNDYYWGQGTQVTVSS,high polyreactivity
7,QVQLVESGGGLVQAGGSLRLSCAASGSTFRSYGMGWYRQAPRKERELVAGISVSGGRTSYADSVKGRFTISRDNAKNTVYLQMNSLKPEDTAVYYCAARRSKVGYHRDYYWGQGTQVTVSS,high polyreactivity
8,QVQLVESGGGLVQAGGSLRLSCAASGSTFRSYVMGWYRQAPGKERELGAGISYRGGTTYYADSVKGRFTISRDNAKNTVYLQMNSLKPEDTAVYNCAADSTPYVLSGNYDYWGQGTQVTVSS,low polyreactivity
9,QVQLVESGGGLVQAGGSLRLSCAASGSTFRTYAMGWYRQAPGKERDLVASIDSTGSTNYADSVKGRFTISRDNAKNTVYLQMNSLKPEDTAVYYCAAETYSDPPFYAYDYWGQGTQVTVSS,low polyreactivity
10,QVQLVESGGGLVQAGGSLRLSCAASGSTFRTYAMGWYRQAPGKERELVAAISFNGTRTYYADSVKGRFTISRDNAKNTVYLQMNSLKPEDTAVYYCAARGRGSFHQKGYYYWGQGTQVTVSS,high polyreactivity
11,QVQLVESGGGLVQAGGSLRLSCAASGSTFRVNAMGWYRQAPGKERELVAAISYRGGSTYYADSVKGRFTISRDNAKNTVYLQMINLKPEDTAVYYCNADLKRRTYGPDSYYWGQGTQVTVSS,high polyreactivity
12,QVQLVESGGGLVQAGGSLRLSCAASGSTFRVNAMGWYRQEPGKEREFVDAITWSTGSTYYADSVKGRFTISRDYAMNTVYLQMNSLKPEDTAVYYCAAREQTYSQRGKKLYYFWGQGTQVTVST,high polyreactivity
13,QVQLVESGGGLVQAGGSLRLSCAASGSTFRVNARGWYRQAPGKERELVAAISFSAGGTYYADSVKGRFTISRDNAKNTVYLQMNSLKPEDTAVYYCAADFYYYDYWGQCTQVTVSS,low polyreactivity
14,QVQLVESGGGLVQAGGSLRLSCAASGSTFRVYAMGWYRQAPGKEREFVAAITGSDGSTYYADSVKGRFTISRDNAKNTVYLQMNSLKPEDTAVYYCAADYYLQNYETGYGYWGQGTQVTVSS,low polyreactivity
15,QVQLVESGGGLVQAGGSLRLSCAASGSTFRVYAMGWYRQAPGKERELVAGITQTSGRTYYADSVKGRFTISRDNAKNTVYLQMNSLKPEDTAVYYCARESYSSYFHYYYWGQGTQVTVSS,high polyreactivity
16,QVQLVESGGGLVQAGGSLRLSCAASGSTFRVYDMGWYRQAPGKERELVASISYSVGSTYYADSVKGRFTISRDNAKNTVYLQMNSLKPEDTAVYYCAARPSYQPSSLARYDYWGQGTQVTVSS,low polyreactivity
17,QVQLVESGGGLVQAGGSLRLSCAASGSTFRWNAMGWYRQAPGKERELDAAINSGGSTNYADSVKGRFTISRDNAKNTVYLQMNSLKPEDTAVYYCATRYDVSYIKFDYWGQGTQVTVSS,high polyreactivity
18,QVQLVESGGGLVQAGGSLRLSCAASGSTFRWYAMGWYRQAPGKERELVAAISRSGGNTYYADSVKGRFTISRDNAKNTVYLQMNSLKPEDTAVYYCAARKLYGSPEHGYWGQGTQVTVSS,high polyreactivity
19,QVQLVESGGGLVQAGGSLRLSCAASGSTFRWYAMGWYRQAPGKERELVASISGSGGSTYYADSVKGRFTISRDNAKNTVYLQMNSLKPEDTAVYYCNKRYFTYLGEHTVGYWGQGTQVTVSS,high polyreactivity
20,QVQLVESGGGLVQAGGSLRLSCAASGSTFRWYGMGWYRQAPGKERELVAVITRGGSTYYADSVKGRFTISRDNAKNTVYLQMNSLKPEDTAVYYCARVRGPNNAFYLGSTYGYWGQGTQVTVSS,high polyreactivity
